In assay [1] the target is T1, Recombinant human NKp46, His Tag (human NKp46 ECD antigen, aa. 22-254, his-tagged) (human, UniProt O76036 22-255).
T1 construct: also called NKp46 extracellular domain (ECD); Acrobiosystems #NC1-H52H4; not shown: His tag
Put plainly: ELISA on coated NKp46-His, and BLI with antibody on anti-human IgG Fc probe and 11 nM NKp46-His.

Assay [2] concerns the target T2, human NKp46 expressed on cells (primary human NK cells; CHOK1-hNKp46 cells) (human, UniProt O76036 22-304).
T2 construct: whole, on cells; also called cell surface expressed NKp46; NCR1
Kind of assay: flow cytometry on primary human NK cells, rabbit IgG, anti-rabbit IgG FITC.

T2 sequence (O76036 22-304): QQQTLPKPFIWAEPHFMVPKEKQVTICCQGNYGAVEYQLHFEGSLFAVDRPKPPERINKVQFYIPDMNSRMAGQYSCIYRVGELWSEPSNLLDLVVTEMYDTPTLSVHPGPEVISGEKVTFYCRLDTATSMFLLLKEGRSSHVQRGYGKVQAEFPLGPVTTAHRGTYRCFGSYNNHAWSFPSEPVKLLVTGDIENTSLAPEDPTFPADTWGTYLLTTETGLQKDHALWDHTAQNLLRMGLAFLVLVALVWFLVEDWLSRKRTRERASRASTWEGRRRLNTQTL
T1 sequence (O76036 other isoform, or with tags, fused parts or gaps): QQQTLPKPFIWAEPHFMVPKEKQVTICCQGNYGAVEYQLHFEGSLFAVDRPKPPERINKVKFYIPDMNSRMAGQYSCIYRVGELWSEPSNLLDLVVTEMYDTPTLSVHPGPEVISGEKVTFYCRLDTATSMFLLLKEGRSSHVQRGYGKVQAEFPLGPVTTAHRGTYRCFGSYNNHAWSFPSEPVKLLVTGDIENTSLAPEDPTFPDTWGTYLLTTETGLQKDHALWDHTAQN

B1: ch3-7 (antibody, human IgG1, kappa, V domains shown)
VH: QSLEESGGRLVTPGTPLTLTCTVSGFSPSSYYMSWVRQAPGKGLEYIGIIFSGGSTWYASWAKGRVTISRTSTTVDLKMTSLTTEDTATYFCARGDAVGSGYWGLWGPGTLVTVSS
VL: AFELTQTPSSVEAAVGGTVTINCQASQDIYIYLAWYQQKPGQPPKLLIYSASTLASGVSSRFTGSRSGTQFTLTISDLEPADAATYYCQSYDGTSNTGFGGGTEVVVRR
notes: Chimeric rabbit/human IgG1; also called chimeric anti-NKp46 antibody ch3-7
Turning to B1, the binding result in assay [1] was “binds”.

B2: rabbit anti-NKp46 clone 3-7 (expressed and purified as rabbit IgG) (antibody, V domains shown)
VH: B1 VH
VL: AFELTQTPSSVEAAVGGTVTINCQASQDIYIYLAWYQQKPGQPPKLLIYSASTLASGVSSRFTGSRSGTQFTLTISDLEPADAATYYCQSYDGTSNTGFGGGTEVVVR
notes: Rabbit IgG
On to B2, for which the binding result in assay [2] is “binds”.

B3: ch5-13 (antibody, human IgG1, kappa, V domains shown)
VH: QSVEESGGRLVTPGTPLTLTCTVSGFSLSSYHMSWVRQAPGKGLEWIGYILANTDSYYANWAKGRFTISKTSTTVDLKITSPTTEDTATYFCARYDNHDAAYSTLWGPGTLVTVSS
VL: AYDMTQTPASVEVAVGGTVTIKCQASQSISTALAWYQQKPGQPPKLLIYKASTLASGVSSRFKGSGSGTQFTLTISGVEPADAATYYCQQGYSRSNVDNVFGGGTEVVVKR
notes: Chimeric rabbit/human IgG1; also called chimeric anti-NKp46 antibody ch5-13
As to B3, the binding result in assay [1] was “binds”.

B4: rabbit anti-NKp46 clone 5-13 (expressed and purified as rabbit IgG) (antibody, V domains shown)
VH: B3 VH
VL: AYDMTQTPASVEVAVGGTVTIKCQASQSISTALAWYQQKPGQPPKLLIYKASTLASGVSSRFKGSGSGTQFTLTISGVEPADAATYYCQQGYSRSNVDNVFGGGTEVVVK
notes: Rabbit IgG
Turning to B4, the binding result in assay [2] is “binds”.

Values taken from patent EP4713370A2 (dated 2026).
